In article PMC8790125, “Molecular Mechanism of SARS-CoVs Orf6 Targeting the Rae1–Nup98 Complex to Compete With mRNA Nuclear Export”:

Target: Rae1;Nup98 GLEBS (human;human, UniProt P78406;P52948-3 1-368;157-213, |)
Assay: ITC
Conditions: protein: recombinant;recombinant; tags: His tag on the complex (HisTrap); copies: 1;1

Sequence of Rae1;Nup98 GLEBS (P78406 whole entry, chain 1 of 2): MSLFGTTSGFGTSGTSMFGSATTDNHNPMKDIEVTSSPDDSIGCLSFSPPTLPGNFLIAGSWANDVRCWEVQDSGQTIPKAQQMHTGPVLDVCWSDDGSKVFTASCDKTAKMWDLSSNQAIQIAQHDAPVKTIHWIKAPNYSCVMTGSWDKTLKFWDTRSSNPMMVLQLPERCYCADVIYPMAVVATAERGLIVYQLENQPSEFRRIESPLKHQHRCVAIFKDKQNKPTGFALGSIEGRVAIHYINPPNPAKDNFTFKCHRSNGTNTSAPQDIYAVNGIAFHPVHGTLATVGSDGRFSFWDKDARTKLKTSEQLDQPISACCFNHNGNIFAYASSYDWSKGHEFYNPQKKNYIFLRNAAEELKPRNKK
Sequence of Rae1;Nup98 GLEBS (P52948 157-213, chain 2 of 2): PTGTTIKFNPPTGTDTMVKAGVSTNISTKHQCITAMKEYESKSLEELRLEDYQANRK

B1: 14-mer poly(U) ssRNA (ssRNA)
RNA: UUUUUUUUUUUUUU
binding result: binds
